Experimental data: patent US20030092035A1 (CALIFORNIA INSTITUTE OF TECHNOLOGY, published 2003)
Ends that are not written are not given here.

T1: MRGA4-GFP fusion protein (mouse) (UniProt Q91WW2)
T1 sequence: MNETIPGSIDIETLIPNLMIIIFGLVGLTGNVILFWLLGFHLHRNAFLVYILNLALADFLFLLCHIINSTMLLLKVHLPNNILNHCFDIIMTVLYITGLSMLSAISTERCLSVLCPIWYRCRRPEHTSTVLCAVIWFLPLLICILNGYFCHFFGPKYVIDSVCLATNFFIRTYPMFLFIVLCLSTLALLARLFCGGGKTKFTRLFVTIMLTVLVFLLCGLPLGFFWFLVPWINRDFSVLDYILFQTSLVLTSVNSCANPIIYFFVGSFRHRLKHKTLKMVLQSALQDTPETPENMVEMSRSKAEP

T2: MRGA1-GFP fusion protein (mouse, UniProt Q91WW5 1-304)
T2 sequence: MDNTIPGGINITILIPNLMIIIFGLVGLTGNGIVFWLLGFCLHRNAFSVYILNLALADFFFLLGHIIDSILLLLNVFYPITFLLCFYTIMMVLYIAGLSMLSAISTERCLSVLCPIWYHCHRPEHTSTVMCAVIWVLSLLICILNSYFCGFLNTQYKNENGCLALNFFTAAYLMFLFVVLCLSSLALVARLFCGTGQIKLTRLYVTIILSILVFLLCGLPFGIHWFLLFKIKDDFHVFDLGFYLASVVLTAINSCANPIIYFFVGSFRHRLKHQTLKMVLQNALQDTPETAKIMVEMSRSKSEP


How the values were obtained:
[1] = molecular target: T1, MRGA4-GFP fusion protein (mouse); experiment: cell-based or functional assay
MRGA1-GFP fusion protein = molecular target: T2, MRGA1-GFP fusion protein; experiment: cell-based or functional assay

Molecule	EC50, Ca2+ dose-response in HEK-Galpha15 cells [1]	EC50, Ca2+ dose-response in HEK-Galpha15 cells (MRGA1-GFP fusion protein)
FLRF-NH2 [FLRFamide]	–	~20 nM
AGEGLNSQFWSLAAPQRF-NH2 (peptide, UniProt O15130 93-110, looked up, species assumed, ends and bridges not checked) [NPAF]	60 nM	–

The next lines start with the values.

EC50, Ca2+ dose-response in HEK-Galpha15 cells [1]	EC50, Ca2+ dose-response in HEK-Galpha15 cells (MRGA1-GFP fusion protein)	Molecule
200 nM	60 nM	ACTH (peptide)
–	200 nM	NPFF (peptide)
